Data on four molecules can be found in paper PMC3500698 (Science signaling, 2012).

One experiment has as its system JNK1, p38α and ERK2. As to the kind of experiment: MAPK interaction profile from FP binding affinities. The arrangement: species or system human. The conditions noted are these: from FP binding affinities to JNK1, p38α and ERK2.
For the next experiment, the target named is p38α (human) (UniProt Q16539). The experiment is described as follows: fluorescence polarisation. On the technique in general: Fluorescence polarisation rises when a labelled molecule tumbles more slowly, as on binding a larger partner.
Experiment [1] deals with extracellular signal-regulated kinase 2 (ERK2) (human) (UniProt P28482). The experiment is described as follows: fluorescence polarisation.
The target of experiment [2] is extracellular signal-regulated kinase 2 (ERK2) (human, UniProt P28482). The experiment is described as follows: fluorescence polarisation.
In the next experiment the target is p38α (human, UniProt Q16539 1-360). As to the kind of experiment: fluorescence polarisation.
p38α, sequence (Q16539 whole entry): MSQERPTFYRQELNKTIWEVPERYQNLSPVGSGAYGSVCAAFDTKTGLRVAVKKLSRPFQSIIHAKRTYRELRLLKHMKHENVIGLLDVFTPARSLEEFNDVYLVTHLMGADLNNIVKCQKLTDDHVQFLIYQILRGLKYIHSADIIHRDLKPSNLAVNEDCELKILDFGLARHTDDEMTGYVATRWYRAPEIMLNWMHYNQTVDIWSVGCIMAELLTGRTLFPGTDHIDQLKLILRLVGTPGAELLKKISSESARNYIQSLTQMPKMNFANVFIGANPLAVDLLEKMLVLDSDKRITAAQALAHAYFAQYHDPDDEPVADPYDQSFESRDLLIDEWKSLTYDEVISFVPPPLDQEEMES

p38α (human), sequence (Q16539 whole entry): as above
extracellular signal-regulated kinase 2 (ERK2) (human), sequence (P28482 whole entry): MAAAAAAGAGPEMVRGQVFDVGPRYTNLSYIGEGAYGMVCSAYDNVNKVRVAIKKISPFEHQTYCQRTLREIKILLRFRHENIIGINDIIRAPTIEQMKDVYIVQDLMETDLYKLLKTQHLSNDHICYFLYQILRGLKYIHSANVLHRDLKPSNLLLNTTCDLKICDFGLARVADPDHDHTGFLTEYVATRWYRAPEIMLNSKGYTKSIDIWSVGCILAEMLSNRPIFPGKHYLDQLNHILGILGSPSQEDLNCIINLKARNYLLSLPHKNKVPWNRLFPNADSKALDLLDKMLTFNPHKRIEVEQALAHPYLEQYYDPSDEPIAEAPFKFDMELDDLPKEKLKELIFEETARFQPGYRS
extracellular signal-regulated kinase 2 (ERK2), sequence (P28482 whole entry): as above

As to LERPSRDHLYLPLE [pepNFAT4], the “MAPK binding profile (in words)” value was “bound JNK1 exclusively” with JNK1, p38α and ERK2; “JNK-specific” in the experiment on JNK1, p38α and ERK2 (listed as NFAT4). Take “pepMK2 (C-terminal MAPK docking peptide of MK2)”: in the experiment with p38α (human), the fold preference for the cognate MAPK (p38α against ERK2) stood at 400 fold. With “pepRSK1 (C-terminal MAPK docking peptide of RSK1)”, the fold preference for the cognate MAPK (ERK2 against p38α) in experiment [1] came out at 20 fold. The term Kd denotes the equilibrium constant for the complex coming apart. Low values mean a tighter complex, high ones a looser complex. Take LSLSSLAASSLAKRRQQ (designed binder) [pepSynth-revD (artificially designed revD-motif peptide)]: the dissociation constant Kd in experiment [2] is around 10 µM; with p38α, around 30 µM.
